What was measured:
[1] = molecular target: full length human tau protein 2N4R (hT40) (human) (UniProt P10636); assay: Simoa sandwich, capture CB7, biotinylated detector
[2] = molecular target: full length human tau protein 2N4R (hT40) (human) (UniProt P10636); assay: Simoa sandwich, capture S1D12, biotinylated detector
[3] = molecular target: full length human tau protein 2N4R (hT40) (human) (UniProt P10636); assay: Simoa sandwich, capture S1G2, biotinylated detector
[4] = molecular target: full length human tau protein 2N4R (hT40) (human) (UniProt P10636); assay: Simoa sandwich, capture Tau12, biotinylated detector
[5] = molecular target: full length human tau protein 2N4R (hT40) (human) (UniProt P10636); assay: SPR, hT40 immobilised, mAb analyte

full length human tau protein 2N4R (hT40) (human), sequence (P10636 other isoform, or with tags, fused parts or gaps limits assumed): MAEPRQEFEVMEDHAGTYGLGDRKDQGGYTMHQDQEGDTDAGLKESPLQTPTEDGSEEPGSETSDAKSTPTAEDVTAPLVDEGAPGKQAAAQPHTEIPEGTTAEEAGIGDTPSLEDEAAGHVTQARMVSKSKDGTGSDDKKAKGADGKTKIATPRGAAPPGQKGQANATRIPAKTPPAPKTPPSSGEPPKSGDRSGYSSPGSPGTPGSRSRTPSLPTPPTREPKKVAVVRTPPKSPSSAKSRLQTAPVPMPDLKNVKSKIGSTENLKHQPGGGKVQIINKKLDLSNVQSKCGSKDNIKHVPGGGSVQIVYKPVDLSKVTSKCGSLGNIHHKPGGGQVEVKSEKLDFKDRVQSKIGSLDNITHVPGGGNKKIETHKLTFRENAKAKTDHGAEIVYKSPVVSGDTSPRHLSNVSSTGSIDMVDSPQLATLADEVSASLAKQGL

Substance	Simoa limit of detection [1]	Simoa limit of detection [2]	Simoa limit of detection [3]	Simoa limit of detection [4]	Kd [5]
BT2 (antibody)	0.75 pg/mL	0.32 pg/mL	–	–	–
HT7 (antibody)	2.2 pg/mL	0.32 pg/mL	0.32 pg/mL	2.2 pg/mL	–
Tau12 mAb (antibody)	–	0.75 pg/mL	1.6 pg/mL	–	1.44 nM
Tau46 (antibody)	2.2 pg/mL	–	2.2 pg/mL	–	–

— US20250355001A1, “METHOD FOR DETECTING A TAU PROTEIN FRAGMENT IN A SAMPLE” (GTINVENT LIMITED, priority 2022, published 2025)
